The record followed here is patent US20190271705A1 (UNIVERSITY OF WESTERN ONTARIO, published 2019).

In one experiment the target is T1, EGFR-pY978 peptide.
T1 construct: Synthetic pTyr-containing peptide
As to the kind of experiment: fluorescence polarization in solution; reference wild-type Fyn SH2 domain.

Experiment [1] has as its target T2, EGF receptor (EGFR) (UniProt P00533 25-1210, tyrosine-phosphorylated in the C-terminal tail (cells treated with EGF and pervanadate); sites not stated).
T2 construct: Endogenous receptor of HEK 293 cells; detected with an anti-EGFR rabbit polyclonal antibody; also called epidermal growth factor receptor
As to the kind of experiment: co-immunoprecipitation from HEK 293 cells.

Experiment [2] deals with T2, EGF receptor (EGFR). As to the kind of experiment: co-immunoprecipitation from HEK 293 cells, anti-GFP and anti-EGFR antibodies.
Protocol: HEK 293 cells were lysed with cold lysis buffer (1% NP-40, 50 mM Tris-HCl pH 7.4, 150 mM NaCl, 2 mM EDTA, 50 mM NaF, 10% Glycerol and protease inhibitor cocktail diluted at 1:1000). After centrifugation at 13,000*g for 15 min, the supernatants were collected. After clearance of the lysate with appropriate pre-immune serum and protein G (Roche), immnuoprecipitation (IP) and immunoblotting (IB) were performed.

Protocol for EGFR-pY978 peptide: Measurements of fluorescence polarization were conducted by titrating the SH2 domain concentration, while keeping the peptide concentration constant. Kd values were calculated with the GraphPad Prism software, by assuming the one-site binding model (GraphPad Software).

B1: T8V/S10A/K15L variant Fyn SH2 domain (designed binder)
chain: MKIEEHHHHHHSSGRENLYFQGGAAQPAAPVDSIQAEEWYFGKLGRKDAERQLLSFGNPRGTFLIRESETVKGAYALSIRDWDDMKGDHVKHYLIRKLDNGGYYITTRAQFETLQQLVQHYSERAAGLSSRLVVPSHKGAAA
With B1, in the experiment with EGFR-pY978 peptide, the “fold affinity increase (Kd[wild-type] divided by Kd[variant])” value was greater than 1000 fold.

B2: A8V/S10A/K15L variant Grb2 SH2 domain expressed as a GFP-fusion protein in HEK 293 cells (designed binder)
chain: MKPHPWFFGKIPRAKAEEMLSKQRHDGAFLIRESESVPGDFALSVKFGNDVQHFLVLRDGAGKYFLWVVKFNSLNELVDYHRSTSVSRNQQIFLRDIEQVPQQP
notes: also called TrM Grb2 SH2 domain; 8V/10A/15L-substituted Grb2 SH2 domain; not shown: GFP encoded by the pEGFPC2 vector (Clontech)
On to B2, for which the binding result in the experiment with EGF receptor (EGFR) [1] is “binds”.

B3: wild-type Fyn SH2 domain expressed as a GFP-fusion protein in HEK 293 cells (other, human, UniProt P06241 139-249, looked up)
chain: APVDSIQAEEWYFGKLGRKDAERQLLSFGNPRGTFLIRESETTKGAYSLSIRDWDDMKGDHVKHYKIRKLDNGGYYITTRAQFETLQQLVQHYSERAAGLCCRLVVPCHKG
notes: domain: SH2 domain; also called Wt Fyn SH2 domain; Wt; not shown: GFP encoded by the pEGFPC2 vector (Clontech)
Take B3: the binding result in the experiment with EGF receptor (EGFR) [2] is listed as “no binding”.

B4: T8V/C10A/K15L variant Src SH2 domain expressed as a GFP-fusion protein in HEK 293 cells (designed binder)
chain: DSIQAEEWYFGKITRRESERLLLNAENPRGTFLVRESETVKGAYALSVSDFDNAKGLNVKHYLIRKLDSGGFYITSRTQFNSLQQLVAYYSKHADGLCHRLTTVCPTSK
notes: domain: SH2 domain; also called TrM Src SH2 domain; 8V/10A/15L-substituted Src SH2 domain; not shown: GFP encoded by the pEGFPC2 vector (Clontech)
B4: in the experiment with EGF receptor (EGFR) [1], the binding result is “binds”.
